Here are results for 2 molecules from patent US20190203227A1 (WILLIAM MARSH RICE UNIVERSITY, published 2019).

The experiment concerns the target T1, wild-type recombinant adeno-associated virus serotype 2 (adeno-associated virus serotype 2, UniProt P03135 1-735; P03135 139-735; P03135 203-735).
T1 construct: Assembled virus capsid; Control virus without PIF6; also called wtAAV2; wtAAV
Kind of experiment: Ni2+ column capture with immobilised PhyB, qPCR of viral genomes, far-red (730 nm) light. (In qPCR the cycle at which signal appears reflects the starting amount.)

B1: PhyB651-His6 (other)
chain: MVSGVGGSGGGRGGGRGGEEEPSSSHTPNNRRGGEQAQSSGTKSLRPRSNTESMSKAIQQYTVDARLHAVFEQSGESGKSFDYSQSLKTTTYGSSVPEQQITAYLSRIQRGGYIQPFGCMIAVDESSFRIIGYSENAREMLGIMPQSVPTLEKPEILAMGTDVRSLFTSSSSILLERAFVAREITLLNPVWIHSKNTGKPFYAILHRIDVGVVIDLEPARTEDPALSIAGAVQSQKLAVRAISQLQALPGGDIKLLCDTVVESVRDLTGYDRVMVYKFHEDEHGEVVAESKRDDLEPYIGLHYPATDIPQASRFLFKQNRVRMIVDCNATPVLVVQDDRLTQSMCLVGSTLRAPHGCHSQYMANMGSIASLAMAVIINGNEDDGSNVASGRSSMRLWGLVVCHHTSSRCIPFPLRYACEFLMQAFGLQLNMELQLALQMSEKRVLRTQTLLCDMLLRDSPAGIVTQSPSIMDLVKCDGAAFLYHGKYYPLGVAPSEVQIKDVVEWLLANHADSTGLSTDSLGDAGYPGAAALGDAVCGMAVAYITKRDFLFWFRSHTAKEIKWGGAKHHPEDKDDGQRMHPRSSFQAFLEVVKSRSQPWETAEMDAIHSLQLILRDSFKESEAAMNSKVVDGVVQPCRDMAGEQGIDELGAHHHHHH
modifications: phycocyanobilin (PCB) chromophore bound after incubation with 5 uM PCB (residue not stated)
As to B1, the binding result is given as “no binding”.

B2: PhyB917-His6 (other)
chain: MGASGVSGVGGSGGGRGGGRGGEEEPSSSHTPNNRRGGEQAQSSGTKSLRPRSNTESMSKAIQQYTVDARLHAVFEQSGESGKSFDYSQSLKTTTYGSSVPEQQITAYLSRIQRGGYIQPFGCMIAVDESSFRIIGYSENAREMLGIMPQSVPTLEKPEILAMGTDVRSLFTSSSSILLERAFVAREITLLNPVWIHSKNTGKPFYAILHRIDVGVVIDLEPARTEDPALSIAGAVQSQKLAVRAISQLQALPGGDIKLLCDTVVESVRDLTGYDRVMVYKFHEDEHGEVVAESKRDDLEPYIGLHYPATDIPQASRFLFKQNRVRMIVDCNATPVLVVQDDRLTQSMCLVGSTLRAPHGCHSQYMANMGSIASLAMAVIINGNEDDGSNVASGRSSMRLWGLVVCHHTSSRCIPFPLRYACEFLMQAFGLQLNMELQLALQMSEKRVLRTQTLLCDMLLRDSPAGIVTQSPSIMDLVKCDGAAFLYHGKYYPLGVAPSEVQIKDVVEWLLANHADSTGLSTDSLGDAGYPGAAALGDAVCGMAVAYITKRDFLFWFRSHTAKEIKWGGAKHHPEDKDDGQRMHPRSSFQAFLEVVKSRSQPWETAEMDAIHSLQLILRDSFKESEAAMNSKVVDGVVQPCRDMAGEQGIDELGAVAREMVRLIETATVPIFAVDAGGCINGWNAKIAELTGLSVEEAMGKSLVSDLIYKENEATVNKLLSRALRGDEEKNVEVKLKTFSPELQGKAVFVVVNACSSKDYLNNIVGVCFVGQDVTSQKIVMDKFINIQGDYKAIVHSPNPLIPPIFAADENTCCLEWNMAMEKLTGWSRSEVIGKMIVGEVFGSCCMLKGPDALTKFMIVLHNAIGGQDTDKFPFPFFDRNGKFVQALLTANKRVSLEGKVIGAFCFLQIPSPELQQALAVGGSHHHHHH
modifications: phycocyanobilin (PCB) chromophore bound after incubation with 5 uM PCB (residue not stated)
notes: Light-switchable phytochrome B fragment, immobilised on a Ni2+ column
Take B2: the binding result is given as “no binding”.
